From patent US20050175581 come the findings set out here.

Numbering of substitutions follows the chain as printed.

One data set addresses T1, substrate B.
T1 chain: KKWLGRVPGGPV

For another data set, the target named is T2, substrate A.
T2 chain: LLWLGRVVGGPV

B1: Variant 1 (protein)
chain: IVGGYNCEENSVPYQVSLNSGYHFCGGSLINEQWVVSAGHCYDAVGRDKSRIQVRLGEHNIEVLEGNEQFINAAKIIRHPQYDRKTLNNDIMLIKLSSRAVINARVSTISLPTAPPATGTKCLISGWGNTITNSTASSGADYPDELQCLDAPVLSQAKCEASYPGKITSNMFCVGFLEGGKDSCQGDSGGPVVCNGQLQGVVSWGDGCAQKNKPGVYTKVYNYVKWIKNTIAANS
Turning to B1, the “rate constants of the proteolytic digestion (proportional to kcat/KM), relative to human trypsin I” value (from here on “rate constants … relative to human trypsin I”) with substrate B is “the specific activity of variants 1 and 2 is shifted (SEQ ID NOs: 2 and 3, respectively) towards substrate B”.

B2: Variant 3 (protein)
chain: B1 chain with D43A, V45T, G46N, R47G, T130R, I131K, T132D, N133F, S134W
B2: the “rate constants … relative to human trypsin I” value in the data set with substrate B and with substrate A was “serves as a negative control with similar activities as the human trypsin I” each time.

B3: Variant 2 (protein)
chain: IVGGYNCEENSVPYQVSLNSGYHFCGGSLINEQWVVSAGHCYNGRDLEKSRIQVRLGEHNIEVLEGNEQFINAAKIIRHPQYDRKTLNNDIMLIKLSSRAVINARVSTISLPTAPPATGTKCLISGWGNVRGTWTASSGADYPDELQCLDAPVLSQAKCEASYPGKITSNMFCVGFLEGGKDSCQGDSGGPVVCNGQLQGVVSWGDGCAQKNKPGVYTKVYNYVKWIKNTIAANS
Take B3: the “rate constants … relative to human trypsin I” value with substrate B is “the specific activity of variants 1 and 2 is shifted (SEQ ID NOs: 2 and 3, respectively) towards substrate B”.
